This note sets out measurements from patent publication US20220112291A1 (Pfizer, published 2022).

The target in assay [1] is T1, human single-chain CD1a-β2M recombinant protein (Human B2M-CD1a ECD-Avi-His6) (human).
T1 construct: Biotinylated in the HTRF, phage selection and Gyrolab assays; also called human CD1a; CD1a protein
The assay is described as follows: SPR (Biacore), IgG; antigen taken as human CD1a. In general terms: SPR reads the build-up and loss of mass on a sensor chip optically.

Assay [2] concerns the target human CD1a expressed on cells (human, UniProt P06126 17-327). The assay is described as follows: cell-based or functional assay.

T1 sequence (chain, as listed by the source limits assumed): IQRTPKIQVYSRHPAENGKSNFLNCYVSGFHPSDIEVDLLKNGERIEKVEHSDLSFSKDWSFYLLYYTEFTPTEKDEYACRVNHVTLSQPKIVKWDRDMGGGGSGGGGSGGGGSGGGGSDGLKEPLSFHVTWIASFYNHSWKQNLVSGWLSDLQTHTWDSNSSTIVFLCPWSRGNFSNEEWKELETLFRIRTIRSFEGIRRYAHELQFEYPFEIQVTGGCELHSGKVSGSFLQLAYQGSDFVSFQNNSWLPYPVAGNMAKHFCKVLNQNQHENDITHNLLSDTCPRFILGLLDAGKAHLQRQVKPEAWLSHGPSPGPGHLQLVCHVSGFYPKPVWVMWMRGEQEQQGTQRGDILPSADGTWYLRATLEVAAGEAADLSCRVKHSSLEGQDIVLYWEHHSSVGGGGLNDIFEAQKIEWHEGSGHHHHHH
human CD1a expressed on cells, sequence (P06126 17-327): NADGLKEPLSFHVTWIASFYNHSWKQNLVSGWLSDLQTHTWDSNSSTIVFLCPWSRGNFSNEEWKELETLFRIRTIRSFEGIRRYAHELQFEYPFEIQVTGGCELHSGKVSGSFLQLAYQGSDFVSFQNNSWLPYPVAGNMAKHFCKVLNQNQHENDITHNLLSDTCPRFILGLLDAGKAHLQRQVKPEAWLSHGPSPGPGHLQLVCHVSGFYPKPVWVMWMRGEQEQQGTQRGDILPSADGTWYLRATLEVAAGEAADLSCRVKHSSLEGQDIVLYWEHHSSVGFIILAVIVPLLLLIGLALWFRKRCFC

B1: Ab556 (antibody, human IgG1, kappa, V domains shown)
VH: EVQLVESGGGLVQPGGSLRLSCAASGFTFTDHYMHWVRQAPGKGLEWVAFIRNSAGGYTTESNPAVKGRFTISRDNAKNSLYLQMNSLRAEDTAVYYCARETTRIPTGWFAYWGQGTLVTVSS
VL: DIQMTQSPSSLSASVGDRVTITCLASEDIYFDLAWYQQKPGKAPKLLIYGGDRLKEGVPSRFSGSGSGTDYTLTISSLQPEDFATYYCQQSESYPYTFGQGTKLEIKR
notes: Optimized variant of Ab138; human IgG1 effector null / kappa; HC with or without terminal lysine
As to B1, the Kd – broadly, the free concentration of one partner at which half of the binding sites on the other are occupied at equilibrium, for simple one-to-one binding – in assay [1] amounted to 0.1 nM. In assay [2], the “Inhibition of CD69 expression, IC50” value is 0.73 nM.

B2: Ab514 (antibody, human IgG1, kappa, V domains shown)
VH: EVQLVESGGGLVQPGGSLRLSCAASGFTFTDHYMHWVRQAPGKGLEWVAFIRNSAGGYTTESNPAVKGRFTISRDNAKNSLYLQMNSLRAEDTAVYYCARETTRIPTGWFAYWGQGTLVTVSS
VL: DIQMTQSPSSLSASVGDRVTITCLASEDIYFDLAWYQQKPGKAPKLLIYGASTPKDGVPSRFSGSGSGTDYTLTISSLQPEDFATYYCQQSEKYPYTFGQGTKLEIKR
notes: as for B1
B2: the Kd in assay [1] stood at 0.28 nM. Moreover, in assay [2], the “Inhibition of CD69 expression, IC50” value was 0.99 nM.

B3: Ab609 (antibody, human IgG1, kappa, V domains shown)
VH: EVQLVESGGGLVQPGGSLRLSCAASGFTFEDHYMHWVRQAPGKGLEWVAHTRDKAGGYTTESNPAVKGRFTISRDNAKNSLYLQMNSLRAEDTAVYYCARETTRIPTGWFAYWGQGTLVTVSS
VL: DIQMTQSPSSLSASVGDRVTITCLASEDIYFDLAWYQQKPGKAPKLLIYGGDRLKEGVPSRFSGSGSGTDYTLTISSLQPEDFATYYCQQSESYPYTFGQGTKLEIKR
notes: as for B1
Take B3: in assay [1], the Kd stood at 0.56 nM. In assay [2], the “Inhibition of CD69 expression, IC50” value is 0.39 nM and the “Inhibition of IL-2 production, IC50” value came out at 0.12 nM.

B4: Ab504 (antibody, human IgG1, kappa, V domains shown)
VH: EVQLVESGGGLVQPGGSLRLSCAASGFTFTDHYMHWVRQAPGKGLEWVAFIRNKAGGYTTESNPAVKGRFTISRDNAKNSLYLQMNSLRAEDTAVYYCARETTGIPTGWFAYWGQGTLVTVSS
VL: DIQMTQSPSSLSASVGDRVTITCLASEDIYFDLAWYQQKPGKAPKLLIYGGDRLKDGVPSRFSGSGSGTDYTLTISSLQPEDFATYYCQQSESYPYTFGQGTKLEIKR
notes: as for B1
With B4, the Kd in assay [1] is 0.53 nM. Also, the “Inhibition of CD69 expression, IC50” value in assay [2] was 1.69 nM.

B5: Ab585 (antibody, human IgG1, kappa, V domains shown)
VH: EVQLVESGGGLVQPGGSLRLSCAASGFTFTDHYMHWVRQAPGKGLEWVGHISGSAGGYTTESNPAVKGRFTISRDNAKNSLYLQMNSLRAEDTAVYYCARETTRIPTGWFAYWGQGTLVTVSS
VL: DIQMTQSPSSLSASVGDRVTITCLASEDIYFDLAWYQQKPGKAPKLLIYGASTPKDGVPSRFSGSGSGTDYTLTISSLQPEDFATYYCQQSEKYPYTFGQGTKLEIKR
notes: as for B1
In the case of B5, the dissociation constant (Kd) in assay [1] is 0.32 nM. For the same molecule, in assay [2], the “Inhibition of CD69 expression, IC50” value came to 0.38 nM and the “Inhibition of IL-2 production, IC50” value worked out at 0.14 nM.

B6: Ab610 (antibody, human IgG1, kappa, V domains shown)
VH: EVQLVESGGGLVQPGGSLRLSCAASGFDFTDHYMHWVRQAPGKGLEWVAHTRDKAGGYTTESNPAVKGRFTISRDNAKNSLYLQMNSLRAEDTAVYYCARETTRIPTGWFAYWGQGTLVTVSS
VL: DIQMTQSPSSLSASVGDRVTITCLASEDIYFDLAWYQQKPGKAPKLLIYGGDRLKEGVPSRFSGSGSGTDYTLTISSLQPEDFATYYCQQSESYPYTFGQGTKLEIKR
notes: as for B1
B6: the dissociation constant Kd in assay [1] amounted to 0.21 nM. Also, in assay [2], the “Inhibition of CD69 expression, IC50” value amounted to 0.44 nM and the “Inhibition of IL-2 production, IC50” value was 0.09 nM.

B7: Ab616 (antibody, human IgG1, kappa, V domains shown)
VH: EVQLVESGGGLVQPGGSLRLSCAASGFTFEDHYMHWVRQAPGKGLEWVGHISGSAGGYTTESNPAVKGRFTISRDNAKNSLYLQMNSLRAEDTAVYYCARETTRIPTGWFAYWGQGTLVTVSS
VL: DIQMTQSPSSLSASVGDRVTITCLASEDIYFDLAWYQQKPGKAPKLLIYGGDRLKEGVPSRFSGSGSGTDYTLTISSLQPEDFATYYCQQSYSYPYTFGQGTKLEIKR
notes: as for B1
Consider B7, for which, in assay [1], the dissociation constant (Kd) is 0.46 nM. In assay [2], the “Inhibition of CD69 expression, IC50” value was determined as 0.41 nM and the “Inhibition of IL-2 production, IC50” value is 0.11 nM.

B8: Ab491 (antibody, human IgG1, kappa, V domains shown)
VH: EVQLVESGGGLVQPGGSLRLSCAASGFTFTDHYMTWVRQAPGKGLEWVAFIRNKANGYTTESNPAVKGRFTISRDNAKNSLYLQMNSLRAEDTAVYYCARETTGIPTGWFAYWGQGTLVTVSS
VL: DIQMTQSPSSLSASVGDRVTITCLASEDIYFDLAWYQQKPGKAPKLLIYGGDRLKEGVPSRFSGSGSGTDYTLTISSLQPEDFATYYCQQSYSYPYTFGQGTKLEIKR
notes: as for B1
Consider B8, for which the Kd in assay [1] worked out at 0.62 nM. For the same molecule, the “Inhibition of CD69 expression, IC50” value in assay [2] was found to be 1.18 nM.

B9: Ab579 (antibody, human IgG1, kappa, V domains shown)
VH: EVQLVESGGGLVQPGGSLRLSCAASGFTFTDHYMTWVRQAPGKGLEWVAFIRNSAGGYTTESNPAVKGRFTISRDNAKNSLYLQMNSLRAEDTAVYYCARETTRIPTGWFAYWGQGTLVTVSS
VL: DIQMTQSPSSLSASVGDRVTITCLASEDIYFDLAWYQQKPGKAPKLLIYGGDRLKEGVPSRFSGSGSGTDYTLTISSLQPEDFATYYCQQSYSYPYTFGQGTKLEIKR
notes: as for B1
In the case of B9, the equilibrium dissociation constant (Kd) in assay [1] stood at 0.27 nM. Besides, in assay [2], the “Inhibition of CD69 expression, IC50” value worked out at 0.73 nM.

B10: Ab560 (antibody, human IgG1, kappa, V domains shown)
VH: EVQLVESGGGLVQPGGSLRLSCAASGFTFTDHYMHWVRQAPGKGLEWVAFIRNKAGGYTTESNPAVKGRFTISRDNAKNSLYLQMNSLRAEDTAVYYCARETTTIPTGWFAYWGQGTLVTVSS
VL: DIQMTQSPSSLSASVGDRVTITCLASEDIYFDLAWYQQKPGKAPKLLIYGGDRLKEGVPSRFSGSGSGTDYTLTISSLQPEDFATYYCQQSESYPYTFGQGTKLEIKR
notes: as for B1
As for B10, in assay [1], the Kd is 0.35 nM. For the same molecule, the “Inhibition of CD69 expression, IC50” value in assay [2] turned out to be 1.61 nM.

B11: Ab623 (antibody, human IgG1, kappa, V domains shown)
VH: EVQLVESGGGLVQPGGSLRLSCAASGFTFEDHYMHWVRQAPGKGLEWVAHTRDKAGGYTTESNPAVKGRFTISRDNAKNSLYLQMNSLRAEDTAVYYCARETTRIPTGWFAYWGQGTLVTVSS
VL: DIQMTQSPSSLSASVGDRVTITCLASEDIYFDLAWYQQKPGKAPKLLIYGGDRLKEGVPSRFSGSGSGTDYTLTISSLQPEDFATYYCQQSYSYPYTFGQGTKLEIKR
notes: as for B1
As to B11, the dissociation constant (Kd) in assay [1] was determined as 0.56 nM. Besides, in assay [2], the “Inhibition of CD69 expression, IC50” value was 0.35 nM and the “Inhibition of IL-2 production, IC50” value was 0.17 nM.

B12: Ab492 (antibody, human IgG1, kappa, V domains shown)
VH: EVQLVESGGGLVQPGGSLRLSCAASGFTFTDHYMTWVRQAPGKGLEWVAFIRNKANGYTTESNPAVKGRFTISRDNAKNSLYLQMNSLRAEDTAVYYCARETTGIPTGWFAYWGQGTLVTVSS
VL: DIQMTQSPSSLSASVGDRVTITCLASEDIYFDLAWYQQKPGKAPKLLIYGGDRLKEGVPSRFSGSGSGTDYTLTISSLQPEDFATYYCQQSESYPYTFGQGTKLEIKR
notes: as for B1
B12: in assay [1], the Kd came to 0.77 nM. In addition, the “Inhibition of CD69 expression, IC50” value in assay [2] turned out to be 1.18 nM.

B13: Ab599 (antibody, human IgG1, kappa, V domains shown)
VH: EVQLVESGGGLVQPGGSLRLSCAASGFTFTDHYMHWVRQAPGKGLEWVGHISGSAGGYTTESNPAVKGRFTISRDNAKNSLYLQMNSLRAEDTAVYYCARETTRIPTGWFAYWGQGTLVTVSS
VL: DIQMTQSPSSLSASVGDRVTITCLASEDIYFDLAWYQQKPGKAPKLLIYGGDRLKEGVPSRFSGSGSGTDYTLTISSLQPEDFATYYCQQSESYPYTFGQGTKLEIKR
notes: as for B1
As to B13, in assay [1], the Kd came out at 0.52 nM. For the same molecule, in assay [2], the “Inhibition of CD69 expression, IC50” value came out at 0.3 nM and the “Inhibition of IL-2 production, IC50” value is 0.08 nM.

B14: Ab624 (antibody, human IgG1, kappa, V domains shown)
VH: EVQLVESGGGLVQPGGSLRLSCAASGFDFTDHYMHWVRQAPGKGLEWVAHTRDKAGGYTTESNPAVKGRFTISRDNAKNSLYLQMNSLRAEDTAVYYCARETTRIPTGWFAYWGQGTLVTVSS
VL: DIQMTQSPSSLSASVGDRVTITCLASEDIYFDLAWYQQKPGKAPKLLIYGGDRLKEGVPSRFSGSGSGTDYTLTISSLQPEDFATYYCQQSYSYPYTFGQGTKLEIKR
notes: as for B1
For B14, the Kd in assay [1] is 1.3 nM. Also, in assay [2], the “Inhibition of CD69 expression, IC50” value is 0.35 nM and the “Inhibition of IL-2 production, IC50” value was 0.17 nM.

B15: Ab656 (antibody, human IgG1, kappa, V domains shown)
VH: EVQLVESGGGLVQPGGSLRLSCAASGFDFTDHYMHWVRQAPGKGLEWVAHTRDKAGGYTTESNPAVKGRFTISRDNAKNSLYLQMNSLRAEDTAVYYCARETTRIPTGWFAYWGQGTLVTVSS
VL: DIQMTQSPSSLSASVGDRVTITCLASEDIYFDLAWYQQKPGKAPKLLIYGGDRLQEGVPSRFSGSGSGTDYTLTISSLQPEDFATYYCQQSYSYPYTFGQGTKLEIKR
notes: as for B1
On to B15, for which the equilibrium dissociation constant (Kd) in assay [1] amounted to 0.54 nM. Also, in assay [2], the “Inhibition of CD69 expression, IC50” value stood at 0.48 nM and the “Inhibition of IL-2 production, IC50” value was determined as 0.22 nM.

B16: Ab555 (antibody, human IgG1, kappa, V domains shown)
VH: EVQLVESGGGLVQPGGSLRLSCAASGFTFTDHYMHWVRQAPGKGLEWVAFIRNSAGGYTTESNPAVKGRFTISRDNAKNSLYLQMNSLRAEDTAVYYCARETTRIPTGWFAYWGQGTLVTVSS
VL: DIQMTQSPSSLSASVGDRVTITCLASEDIYFDLAWYQQKPGKAPKLLIYGGDRLKEGVPSRFSGSGSGTDYTLTISSLQPEDFATYYCQQSYSYPYTFGQGTKLEIKR
notes: as for B1
On to B16, for which the Kd in assay [1] came to 0.27 nM. The “Inhibition of CD69 expression, IC50” value in assay [2] was 0.99 nM.

B17: Ab572 (antibody, human IgG1, kappa, V domains shown)
VH: EVQLVESGGGLVQPGGSLRLSCAASGFTFTDHYMTWVRQAPGKGLEWVAFIRNKAGGYTTESNPAVKGRFTISRDNAKNSLYLQMNSLRAEDTAVYYCARETTGIPTGWFAYWGQGTLVTVSS
VL: DIQMTQSPSSLSASVGDRVTITCLASEDIYFDLAWYQQKPGKAPKLLIYGGDRLKEGVPSRFSGSGSGTDYTLTISSLQPEDFATYYCQQSESYPYTFGQGTKLEIKR
notes: as for B1
In the case of B17, the dissociation constant (Kd) in assay [1] came to 0.39 nM. The “Inhibition of CD69 expression, IC50” value in assay [2] came to 0.85 nM.

B18: Ab559 (antibody, human IgG1, kappa, V domains shown)
VH: EVQLVESGGGLVQPGGSLRLSCAASGFTFTDHYMHWVRQAPGKGLEWVAFIRNKAGGYTTESNPAVKGRFTISRDNAKNSLYLQMNSLRAEDTAVYYCARETTTIPTGWFAYWGQGTLVTVSS
VL: DIQMTQSPSSLSASVGDRVTITCLASEDIYFDLAWYQQKPGKAPKLLIYGGDRLKEGVPSRFSGSGSGTDYTLTISSLQPEDFATYYCQQSYSYPYTFGQGTKLEIKR
notes: as for B1
B18: the Kd in assay [1] amounted to 0.39 nM. In addition, the “Inhibition of CD69 expression, IC50” value in assay [2] worked out at 1.29 nM.
